Blank lines part the entries; values can stand above or below the binder they belong to.
Target: T1, recombinant human Trop-2 (Sino Biological, Cat. No: 10428-H08H) (human, UniProt P09758 27-274)
T1 chain: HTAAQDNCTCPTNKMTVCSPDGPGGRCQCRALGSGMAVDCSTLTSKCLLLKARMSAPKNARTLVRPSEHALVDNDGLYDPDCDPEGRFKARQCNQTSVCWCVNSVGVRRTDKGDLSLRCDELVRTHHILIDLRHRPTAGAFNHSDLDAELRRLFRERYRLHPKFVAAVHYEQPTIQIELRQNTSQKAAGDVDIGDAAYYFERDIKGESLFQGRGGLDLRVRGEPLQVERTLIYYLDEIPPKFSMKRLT
Assay: ELISA

- EC50: 0.081 nM
B1: Anti-Trop-2 mAb (antibody, V domains shown)
VH: VQLQQSGSELKKPGASVKVSCKASGYTFTNYGMNWVKQAPGQGLKWMGWINTYTGEPTYTDDFKGRFAFSLDTSVSTAYLQISSLKADDTAVYFCARGGFGSSYWYFDVWGQGSLVTVSS
VL: DIQLTQSPSSLSASVGDRVSITCKASQDVSIAVAWYQQKPGKAPKLLIYSASYRYTGVPDRFSGSGSGTDFTLTISSLQPEDFAVYYCQQHYITPLTFGAGTKV

- EC50: 0.28 nM
B2: heterodimeric anti-Trop-2/anti-CD3-scFv bispecific antibody (bispecific antibody)
heavy: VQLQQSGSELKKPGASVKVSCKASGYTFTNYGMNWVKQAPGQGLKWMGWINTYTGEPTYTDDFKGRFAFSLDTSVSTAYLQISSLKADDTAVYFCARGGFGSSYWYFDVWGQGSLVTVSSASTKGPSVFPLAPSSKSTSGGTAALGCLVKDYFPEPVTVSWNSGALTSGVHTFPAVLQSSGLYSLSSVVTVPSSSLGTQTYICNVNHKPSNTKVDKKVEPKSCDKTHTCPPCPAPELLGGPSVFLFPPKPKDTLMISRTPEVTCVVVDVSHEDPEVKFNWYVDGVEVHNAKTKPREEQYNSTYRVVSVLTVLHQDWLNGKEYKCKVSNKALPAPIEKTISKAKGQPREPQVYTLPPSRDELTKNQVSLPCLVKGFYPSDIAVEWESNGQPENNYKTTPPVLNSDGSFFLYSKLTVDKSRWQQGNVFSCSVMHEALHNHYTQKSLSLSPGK
light: DIQLTQSPSSLSASVGDRVSITCKASQDVSIAVAWYQQKPGKAPKLLIYSASYRYTGVPDRFSGSGSGTDFTLTISSLQPEDFAVYYCQQHYITPLTFGAGTKVEIKRTVAAPSVFIFPPSDEQLKSGTASVVCLLNNFYPREAKVQWKVDNALQSGNSQESVTEQDSKDSTYSLSSTLTLSKADYEKHKVYACEVTHQGLSSPVTKSFNRGEC
scFv: not shown

From patent US20190284299A1 (published 2019)
